Data: patent US20040250304A1 (EISAI R AND D MANAGEMENT, published 2004)

Tests used:
[1] = biological target: T1, synthetic Aβ (1-42) peptide (UniProt P05067 672-713); assay: solid phase binding: Aβ (1-42) immobilized on 96-well plates, culture supernatant applied, detection with anti-CLAC antibody and peroxidase secondary antibody, TMB; ten trials
T1 construct: domain: Aβ (1-42); also called beta-amyloid; amyloid-beta peptide
Experimental: In vitro binding of CLAC to Aβ was performed according to a method of Webster et al. (Am. J. Pathol., 150, 1531 (1997)).
The transformant (strain 9D2-1) permanently expressing human CLAC-P obtained in Example 3 was selection-cultured in DMEM medium containing 10% FBS and hygromycin for 4 days, and the culture supernatant was collected. Fifty μl (0.1 mg/ml) of synthetic Aβ (1-42) (Bachem) was immobilized to each well of 96-well micro-well plates (Greiner), and dried in a desiccator. Thereafter, blocking was performed with PBS-T containing 1% gelatin (Wako Junyaku) for 1 hour, and washed with PBS-T for 10 min (3×), and the culture supernatant obtained was applied. Similarly, culture supernatant of control HEK293 cells used in Example 3 was applied. After reaction at room temperature for 1 hour, washed with PBS-T for 10 min (5×), and then reacted with anti-CLAC antibody diluted with similar blocking solution (1/5000) at room temperature for 1 hour. After washing with PBS-T for 10 min (5×), reacted with a secondary antibody (anti-rabbit Ig, horseradish peroxidase bound whole antibody (Amersham)) diluted with similar blocking solution (1/5000) at room temperature for 1 hour. After washing with PBS-T for 10 min (5×), colour was developed with TMB reagent (Kirkegard & Perry Laboratories).

[2] = biological target: T1, synthetic Aβ (1-42) peptide; assay: Aβ (1-42) binding to HEK293 cells expressing human CLAC-P; Western blotting

T1 sequence (P05067 672-713 limits assumed): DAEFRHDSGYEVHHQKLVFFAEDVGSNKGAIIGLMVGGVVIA

Binder	fold colour development against control HEK293 supernatant [1] [times]	binding result [2]
CLAC secreted by HEK293 transformant strain 9D2-1 permanently expressing human CLAC-P (other, Usually, the first amino acid Glu of CLAC is cyclized to be pyroglutamic acid residue, also called crude purified CLAC; culture supernatant of transformant permanently expressing CLAC-P) EAPSECNCPAGPPGKRGKRGRRGESGPPGQPGPQGPPGPKGDKGEQGDQGPRMVFPKINHGFLSADQQLIKRRLIKGDQGQAGPPGPPGPPGPRGPPGDTGKDGPRGMPGVPGEPGKPGEQGLMGPLGPPGQKGSIGAPGIPGMNGQKGEPGLPGAVGQNGIPGPKGEPGEQGEKGDAGENGPKGDTGEKGDPGSSAAGIKGEPGESGRPGQKGEPGLPGLPGLPGIKGEPGFIGPQGEPGLPGLPGTKGERGEAGPPGRGERGEPGAPGPKGKQGESGTRGPKGSKGDRGEKGDSGAQGPRGPPGQKGDQGATKIIDYNGNLHEALQRITTLTVTGPPGPPGPQGLQGPKGEQGSPGIPGMDGEQGLKGSKGDMGDPGMTGEKGGIGLPGLPGANGMKGEKGDSGMPGPQGPSIIGPPGPPGPHGPPGPMGPHGLPGPKGTDGPMGPHGPAGPKGERGEKGAMGEPGPRGPYGLPGKDGEPGLDGFPGPRGEKGDLGEKGEKGFRGVKGEKGEPGQPGLDGLDAPCQLGPDGLPMPGCWQK	~50	
human CLAC-P (precursor of CLAC), full length (receptor, Type II single pass transmembrane protein of 654 amino acids, expressed permanently in HEK293 cells (strains 9D2-1, 9D2-2, 9D2-11); also called full length recombinant CLAC-P protein; 9D2 antigen precursor) MLLKKHAGKGGGREPRSEDPTPAEQHCSRTMPPCAVLAALLSVVAVVSCLYLGVKTNDLQARIAALESAKGAPSIHLLPDTLDHLKTMVQEKVERLLAQKSYEHMAKIRIAREAPSECNCPAGPPGKRGKRGRRGESGPPGQPGPQGPPGPKGDKGEQGDQGPRMVFPKINHGFLSADQQLIKRRLIKGDQGQAGPPGPPGPPGPRGPPGDTGKDGPRGMPGVPGEPGKPGEQGLMGPLGPPGQKGSIGAPGIPGMNGQKGEPGLPGAVGQNGIPGPKGEPGEQGEKGDAGENGPKGDTGEKGDPGSSAAGIKGEPGESGRPGQKGEPGLPGLPGLPGIKGEPGFIGPQGEPGLPGLPGTKGERGEAGPPGRGERGEPGAPGPKGKQGESGTRGPKGSKGDRGEKGDSGAQGPRGPPGQKGDQGATKIIDYNGNLHEALQRITTLTVTGPPGPPGPQGLQGPKGEQGSPGIPGMDGEQGLKGSKGDMGDPGMTGEKGGIGLPGLPGANGMKGEKGDSGMPGPQGPSIIGPPGPPGPHGPPGPMGPHGLPGPKGTDGPMGPHGPAGPKGERGEKGAMGEPGPRGPYGLPGKDGEPGLDGFPGPRGEKGDLGEKGEKGFRGVKGEKGEPGQPGLDGLDAPCQLGPDGLPMPGCWQK		binds
